Results on 9 substances are retold here after paper PMC7642679.

Common to all, as to experiment: SEC
Assay [1] deals with spike-6P D614G with the RBD replacement A419V (SARS-CoV-2).
In assay [2] the target is spike-6P D614G with the RBD replacement A522V (SARS-CoV-2).
In assay [3] the target is spike-6P D614G with the RBD replacement R408T (SARS-CoV-2).
Assay [4] has as its target spike-6P D614G with the RBD replacement E484Q (SARS-CoV-2).
The target in assay [5] is spike-6P D614G with the RBD replacement F338L (SARS-CoV-2).
Assay [6] concerns the target spike-6P D614G with the RBD replacement G446V (SARS-CoV-2).
For assay [7], the target named is spike-6P (HexaPro) SARS-CoV-2 spike protein construct (SARS-CoV-2).
Assay [8] has as its target spike-6P with the D614G substitution (SARS-CoV-2).
The target of assay [9] is spike-6P D614G with the RBD replacement S373P (SARS-CoV-2).

In assay [1], “spike-6P D614G with the RBD replacement A419V” displayed a stoichiometry N of 3.
Consider “spike-6P D614G with the RBD replacement A522V”, for which the stoichiometry N in assay [2] turned out to be 3.
Consider “spike-6P D614G with the RBD replacement R408T”, for which the stoichiometry N in assay [3] was found to be 3.
On to “spike-6P D614G with the RBD replacement E484Q”, for which the stoichiometry N in assay [4] was found to be 3.
Take “spike-6P D614G with the RBD replacement F338L”: in [5], the stoichiometry N turned out to be 3.
“spike-6P D614G with the RBD replacement G446V”: the stoichiometry N in [6] was found to be 3.
“spike-6P (HexaPro) SARS-CoV-2 spike protein construct” showed a stoichiometry N in assay [7] of 3.
In the case of spike-6P with the D614G substitution, the stoichiometry N in assay [8] turned out to be 3.
In [9], “spike-6P D614G with the RBD replacement S373P” gave a stoichiometry N of 3.

One may read the stoichiometry N as the number of molecules, sites or subunits per partner or assembly.
